{
  "source": "paper PMC2916699",
  "about": "(Journal of molecular biology, 2009)",
  "note": "Where no end group is shown, it is not given here. The star is where a group is joined. Dansyl = CN(C)c1cccc2c(S(=O)(=O)*)cccc12",
  "data": [
    {"molecular_target": "protein farnesyltransferase (FTase), wild type (UniProt Q04631 1-377; Q02293 1-437)", "test": "fluorescence polarisation", "units": {"Kd": "nM"}, "values": [
      {"binder": "Dansyl-TKCAVQ", "note": "[dansyl-TKCAVQ]", "Kd": "13 ± 3"},
      {"binder": "Dansyl-TKCSLM", "note": "[dansyl-TKCSLM]", "Kd": "8 ± 2"},
      {"binder": "Dansyl-TKCGIM", "note": "[dansyl-TKCGIM]", "Kd": "3.6 ± 0.7"},
      {"binder": "Dansyl-TKCLVM", "note": "[dansyl-TKCLVM]", "Kd": "6 ± 2"},
      {"binder": "Dansyl-TKCNIM", "note": "[dansyl-TKCNIM]", "Kd": "5 ± 1"},
      {"binder": "Dansyl-TKCNLQ", "note": "[dansyl-TKCNLQ]", "Kd": "8 ± 1"},
      {"binder": "Dansyl-TKCRIS", "note": "[dansyl-TKCRIS]", "Kd": "12 ± 2"},
      {"binder": "Dansyl-TKCSIM", "note": "[dansyl-TKCSIM]", "Kd": "6 ± 2"},
      {"binder": "Dansyl-TKCSIS", "note": "[dansyl-TKCSIS]", "Kd": "3.4 ± 0.8"},
      {"binder": "Dansyl-TKCSLC (cysteine pairing not given here)", "note": "[dansyl-TKCSLC]", "Kd": "5 ± 2"},
      {"binder": "Dansyl-TKCSLG", "note": "[dansyl-TKCSLG]", "Kd": "3.4 ± 0.7"},
      {"binder": "Dansyl-TKCTLQ", "note": "[dansyl-TKCTLQ]", "Kd": "7 ± 1"},
      {"binder": "Dansyl-TKCYVM", "note": "[dansyl-TKCYVM]", "Kd": "12 ± 4"},
      {"binder": "Dansyl-TKCITQ", "note": "[dansyl-TKCITQ]", "Kd": "3.6 ± 0.8"},
      {"binder": "Dansyl-TKCTMS", "note": "[dansyl-TKCTMS]", "Kd": "6 ± 2"},
      {"binder": "Dansyl-TKCIVA", "note": "[dansyl-TKCIVA]", "Kd": "5 ± 2"},
      {"binder": "Dansyl-TKCVVT", "note": "[dansyl-TKCVVT]", "Kd": "7 ± 3"},
      {"binder": "Dansyl-TKCLTS", "note": "[dansyl-TKCLTS]", "Kd": "5 ± 1"},
      {"binder": "Dansyl-TKCTKF", "note": "[dansyl-TKCTKF]", "Kd": "6 ± 1"}
    ]}
  ]
}
